This series in a line: collision cross section of modified peptide (TIMS, N2, iRT-aligned); higher = larger / more extended gas-phase ion. Summed up: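 Collision cross section values rest on the Mason-Schamp equation applied to calibrated, run-aligned mobility data from synthetic peptides. Mobility (1/K0) was calibrated with three reference ions and aligned per run to the median iRT peptide deviation, and 1–3 technical replicates of the most abundant feature per charge state were averaged. Data came from a timsTOF Pro/HT in dda-PASEF mode (nitrogen, ~2.4 mbar) after a 120-min nanoflow C18 gradient at 60 °C.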

Setting [1] is: charge state: 2, modification: Propionyl.
The mark [2] stands for this setting: charge state: 2, modification: Acetyl (K).
The mark [3] stands for this setting: charge state: 3, modification: Acetyl (K).
Setting [4] is: charge state: 2, modification: Methyl (K).
Setting [5] is: charge state: 3, modification: Methyl (K).
The mark [6] stands for this setting: charge state: 2, modification: Formyl.
Where [7] appears, read: charge state: 3, modification: Formyl.
Setting [8] is: charge state: 2, modification: Phospho (Y).
The mark [9] stands for this setting: charge state: 2, modification: Malonyl.
The mark [10] stands for this setting: charge state: 3, modification: Malonyl.
Setting [11] is: charge state: 2, modification: Biotin.
[12] abbreviates: charge state: 2, modification: Methyl (R).
The mark [13] stands for this setting: charge state: 3, modification: Methyl (R).
[14] abbreviates: charge state: 2, modification: Hydroxyproline.
[15] abbreviates: charge state: 3, modification: Hydroxyproline.
Setting [16] is: charge state: 2, modification: Citrullination (R).
Setting [17] is: charge state: 3, modification: Citrullination (R).
[18] abbreviates: charge state: 2, modification: Butyryl.
[19] abbreviates: charge state: 3, modification: Butyryl.
Where [20] appears, read: charge state: 2, modification: Glutarylation.
The mark [21] stands for this setting: charge state: 3, modification: Glutarylation.
Setting [22] is: charge state: 3, modification: Phospho (Y).
The mark [23] stands for this setting: charge state: 2, modification: hydroxyisobutyryl.
Setting [24] is: charge state: 2, modification: Trimethyl (K).
The mark [25] stands for this setting: charge state: 3, modification: Trimethyl (K).
Where [26] appears, read: charge state: 2, modification: Nitro (Y).

± gives the standard deviation.

“LEEVTGKLQVAR [_LEEVTGK(Dimethyl (K))LQVAR_]”: the collision cross section worked out at 394.61 ± 0.25 Å² (charge state: 2, modification: Dimethyl (K)) and 471.08 ± 2.1 Å² (charge state: 3, modification: Dimethyl (K)). As for “LQEKVESAQSEQK [_LQEK(Propionyl)VESAQSEQK_]”, the collision cross section runs as follows: under setting [1], 417.86 ± 1.3 Å²; (charge state: 3, modification: Propionyl) 502.35 ± 1.5 Å². With “LQDVSGQLSSSKK [_LQDVSGQLSSSK(Acetyl (K))K_]”, the collision cross section runs as follows: under setting [2], 396.87 ± 1.3 Å²; under setting [3], 461.64 ± 3.7 Å².

With “SLGEPAAGEGSAKR [_SLGEPAAGEGSAK(Methyl (K))R_]”, the collision cross section runs as follows: under setting [4], 408.5 ± 0.81 Å²; under setting [5], 480.43 ± 2.6 Å². With “SLFFGGKGAPLQR [_SLFFGGK(Acetyl (K))GAPLQR_]”, the collision cross section under setting [2] was determined as 401.47 ± 0.85 Å². For the substance “ANLEKAQAELVGTADEATR [_ANLEK(Formyl)AQAELVGTADEATR_]”, the collision cross section is, setting by setting: under setting [6], 471.04 ± 1.4 Å²; under setting [7], 566.89 ± 0.82 Å². Substance LDYSDFQIVK [_LDY(Phospho (Y))SDFQIVK_] yielded a collision cross section under setting [8] of 374.72 ± 0.79 Å². “VGLQVVAVKAPGFGDNR [_VGLQVVAVK(Malonyl)APGFGDNR_]”: the collision cross section worked out at 445.13 ± 1 Å² under setting [9] and 541.36 ± 0.027 Å² under setting [10]. Take SGFGKFER [_SGFGK(Biotin)FER_]: the collision cross section under setting [11] turned out to be 352.97 Å². Consider “AVPSSPAGSAARGR [_AVPSSPAGSAAR(Methyl (R))GR_]”, for which the collision cross section is reported as 387.69 ± 1.4 Å² under setting [12] and 492.48 ± 1.5 Å² under setting [13]. Regarding “DYQPGITFIVVQKR [_DYQP(Hydroxyproline)GITFIVVQKR_]”, the collision cross section by setting is: under setting [14], 449.25 ± 1.9 Å²; under setting [15], 517.44 ± 1.2 Å². As for “DLTTAGAVTQCYR [_DLTTAGAVTQCY(Phospho (Y))R_]”, the collision cross section under setting [8] stood at 405.28 ± 0.061 Å². As for “LLIVSTTPYSEKDTK [_LLIVSTTPYSEK(Acetyl (K))DTK_]”, the collision cross section is listed as 449.39 ± 2.3 Å² under setting [2] and 486.31 ± 3 Å² under setting [3]. With “LVLPSQAQARLPSGEVVK [_LVLPSQAQAR(Citrullination (R))LPSGEVVK_]”, the collision cross section under setting [16] is listed as 464.28 ± 0.94 Å² and the collision cross section under setting [17] is listed as 522.33 ± 4.3 Å². In the case of PARGLYSR [_PAR(Methyl (R))GLYSR_], the collision cross section runs as follows: under setting [12], 338.81 ± 0.66 Å²; under setting [13], 407.19 Å². On to SPDEAYAIAKK [_SPDEAYAIAK(Butyryl)K_], for which the collision cross section was determined as 376.59 ± 1.2 Å² under setting [18] and 446.36 ± 0.47 Å² under setting [19]. On to “HELQANCYEEVKDR [_HELQANCYEEVK(Malonyl)DR_]”, for which the collision cross section under setting [10] came out at 477.83 ± 2.4 Å².

Consider “GADFLVTEVENGGSLGSKK [_GADFLVTEVENGGSLGSK(Butyryl)K_]”, for which the collision cross section is, setting by setting: under setting [18], 476.08 ± 1.1 Å²; under setting [19], 551.35 Å². The substance “HHTLRQAPQPQSSLQR [_HHTLR(Citrullination (R))QAPQPQSSLQR_]” displayed a collision cross section under setting [17] of 502.84 ± 0.41 Å². ISALQGKLSK [_ISALQGK(Biotin)LSK_] showed a collision cross section under setting [11] of 376.95 ± 2.2 Å². “STGLELETPSLVPVKK [_STGLELETPSLVPVK(Propionyl)K_]” gave a collision cross section under setting [1] of 435.15 Å². With “LFVGGIKEDTEEHHLR [_LFVGGIK(Malonyl)EDTEEHHLR_]”, the collision cross section under setting [10] is reported as 537.8 Å². Turning to “GGGGGRGGLHDFR [_GGGGGR(Methyl (R))GGLHDFR_]”, the collision cross section under setting [13] amounted to 457.91 ± 1.5 Å².

“SLGEPAAGEGSAKR [_SLGEPAAGEGSAK(Gluratylation)R_]” returned a collision cross section under setting [20] of 384.54 ± 0.66 Å² and a collision cross section under setting [21] of 479.54 ± 1 Å². Consider “TFGKAAGPSLSHTSGGTQSK [_TFGK(Malonyl)AAGPSLSHTSGGTQSK_]”, for which the collision cross section under setting [10] was found to be 514.27 ± 0.92 Å². The substance “SNEEGSEEKGPEVR [_SNEEGSEEK(Malonyl)GPEVR_]” showed a collision cross section under setting [9] of 402.09 ± 1.6 Å². As to “GVEAVGSYAENQR [_GVEAVGSY(Phospho (Y))AENQR_]”, the collision cross section came out at 388.79 ± 0.77 Å² under setting [8] and 472.71 ± 0.98 Å² under setting [22].

GSELQNYFTK [_GSELQNY(Phospho (Y))FTK_] gave a collision cross section under setting [8] of 373.39 ± 0.68 Å². Substance “AGPNASIISLKSDK [_AGPNASIISLK(Acetyl (K))SDK_]” returned a collision cross section under setting [2] of 408.51 ± 3 Å². Turning to “FGTINIVHPKLGSYTK [_FGTINIVHPK(hydroxyisobutyryl)LGSYTK_]”, the collision cross section by setting is: under setting [23], 477.53 ± 1.6 Å²; (charge state: 3, modification: hydroxyisobutyryl) 560.61 ± 2.1 Å². The substance LLFSNTAAQKLR [_LLFSNTAAQK(Malonyl)LR_] displayed a collision cross section under setting [9] of 400.72 ± 0.029 Å².

For the substance “IQTVPASHLQQGTASGSSK [_IQTVPASHLQQGTAS(HexNAc (ST))GSSK_]”, for the setting “charge state: 3, modification: HexNAc (ST)”, the collision cross section worked out at 510.18 ± 0.18 Å². On to ASEALLKQLK [_ASEALLK(Biotin)QLK_], for which the collision cross section under setting [11] was found to be 396.36 ± 2.2 Å².

Regarding “GSLEKGSPEDK [_GSLEK(Trimethyl (K))GSPEDK_]”, the collision cross section under setting [24] is reported as 363.82 ± 0.64 Å² and the collision cross section under setting [25] was 436.7 ± 2.4 Å². With “VGIDTPDIDIHGPEGKLK [_VGIDTPDIDIHGPEGK(Methyl (K))LK_]”, the collision cross section stood at 463.74 Å² under setting [4] and 542.59 ± 0.45 Å² under setting [5]. IQQELQTAKK [_IQQELQTAK(Crotonyl)K_]: the collision cross section is 386.16 ± 0.79 Å² (charge state: 2, modification: Crotonyl) and 431.2 ± 1.6 Å² (charge state: 3, modification: Crotonyl). Substance “LLEEEDSKLK [_LLEEEDSK(hydroxyisobutyryl)LK_]” had a collision cross section under setting [23] of 385.85 ± 5.2 Å². In the case of GTPGKPGPR [_GTPGKP(Hydroxyproline)GPR_], under setting [14], the collision cross section was 308.55 Å². Take “GSLGAQKLANTCFNEIEK [_GSLGAQK(Gluratylation)LANTCFNEIEK_]”: under setting [20], the collision cross section is listed as 469.86 Å². For the substance “DTPTSAGPNSFNKGK [_DTPTSAGPNSFNK(Malonyl)GK_]”, under setting [9], the collision cross section came to 408.63 ± 0.58 Å². The substance “GRGGPGPAQR [_GR(Citrullination (R))GGPGPAQR_]” returned a collision cross section under setting [16] of 319.56 ± 0.91 Å².

Under setting [9], SPDEAYAIAKK [_SPDEAYAIAK(Malonyl)K_] came in with a collision cross section of 371.15 ± 0.62 Å². Under setting [13], “GIGRGTVQALHATGAR [_GIGR(Methyl (R))GTVQALHATGAR_]” came in with a collision cross section of 502.48 ± 1.9 Å². For DVNAAIAAIKTK [_DVNAAIAAIK(Formyl)TK_], the collision cross section under setting [6] came to 377.34 ± 15 Å². On to ITASLCDLKSR [_ITASLCDLK(Methyl (K))SR_], for which the collision cross section runs as follows: under setting [4], 398.61 Å²; under setting [5], 456.95 ± 2.7 Å². In the case of “STGLELETPSLVPVKK [_STGLELETPSLVPVK(Biotin)K_]”, the collision cross section under setting [11] is 465.71 Å².

Substance “GSLGAQKLANTCFNEIEK [_GSLGAQK(Biotin)LANTCFNEIEK_]” yielded a collision cross section (charge state: 3, modification: Biotin) of 538.06 ± 0.96 Å². The substance “PGPQPSAETTR [_P(Hydroxyproline)GPQPSAETTR_]” registered a collision cross section under setting [15] of 412.85 Å². Take DLGKFQVATDALK [_DLGK(Formyl)FQVATDALK_]: the collision cross section under setting [6] is given as 403.92 ± 0.55 Å². For DLYEPSHGAK [_DLY(Nitro (Y))EPSHGAK_], the collision cross section under setting [26] was 364.04 ± 0.94 Å² and the collision cross section (charge state: 3, modification: Nitro (Y)) was 435.87 ± 1.2 Å². Consider “DTGEKLTVAENEAETK [_DTGEK(Trimethyl (K))LTVAENEAETK_]”, for which the collision cross section runs as follows: under setting [24], 443.08 Å²; under setting [25], 490.09 ± 1.8 Å². GPPGPPGK [_GPPGP(Hydroxyproline)PGK_] returned a collision cross section under setting [14] of 274.06 ± 0.78 Å². The substance VGEFSGANKEK [_VGEFSGANK(Propionyl)EK_] gave a collision cross section under setting [1] of 367.87 ± 0.33 Å².

Substance VELCSFSGYK [_VELCSFSGY(Nitro (Y))K_] had a collision cross section under setting [26] of 364.52 ± 0.72 Å². Take LQEKVESAQSEQK [_LQEK(Formyl)VESAQSEQK_]: the collision cross section reads like this: under setting [6], 410.52 ± 1.2 Å²; under setting [7], 496.47 ± 0.53 Å². Consider “SGNLTEDDKHNNAK [_SGNLTEDDK(Acetyl (K))HNNAK_]”, for which the collision cross section is reported as 418.78 ± 2.4 Å² under setting [2] and 469.35 ± 2.1 Å² under setting [3]. For the substance GEYFGEK [_GEY(Nitro (Y))FGEK_], under setting [26], the collision cross section was determined as 309.86 ± 0.71 Å².

“AAGQPYEQHAK [_AAGQPY(Phospho (Y))EQHAK_]” returned a collision cross section under setting [8] of 368.83 ± 10 Å² and a collision cross section under setting [22] of 436.55 Å². Consider SEGFDTYR [_SEGFDTY(Nitro (Y))R_], for which the collision cross section under setting [26] came to 336.07 ± 0.95 Å². As for “VNIGQGSHPQKVK [_VNIGQGSHPQK(Gluratylation)VK_]”, the collision cross section is, setting by setting: under setting [20], 424.75 ± 1.8 Å²; under setting [21], 494.72 ± 8.3 Å².

On to “YEQEHAAIQDKLFQVAK [_YEQEHAAIQDK(Formyl)LFQVAK_]”, for which, under setting [7], the collision cross section amounted to 510.23 ± 1.3 Å².

Values taken from the supplement of paper PMC10598134.
